Assay [1] deals with Recombinant baculovirus-expressed HIV-1 gp120 derived from the MN isolate (HIV-1 isolate MN) (UniProt P05877). Kind of assay: competition: 125I-CD4 on immobilized gp120, 10-fold molar excess of peptide; isolate (MN or LAI) not stated.
Assay [2] has as its target Recombinant baculovirus-expressed HIV-1 gp120 derived from the LAV isolate (HIV-1 isolate LAV (LAI)) (UniProt P03377). Described as above.
Assay [3] addresses CHO cell-expressed soluble recombinant CD4 (UniProt P01730). The assay is described as follows: competition: 125I-CD4 on immobilized gp120 (MN and LAI), 10-fold molar excess of fusion protein.
In assay [4] the target is CSVTCG peptide derived from TSP1 properdin-like Type 1 repeat. The assay is described as follows: solid phase binding, 125I-gp120 on immobilized peptide, saturation isotherms.

As usually defined, the % inhibition is the share of the control response that was lost under treatment. In the case of “CSVTCG peptide derived from TSP1 properdin-like Type 1 repeat”, the % inhibition in assay [1] was 53%.

Regarding “GRGDS peptide derived from TSP1 calcium binding Type 3 repeat”, the % inhibition in assay [2] and in assay [1] was 4% throughout.

With “GST/CD36 fusion protein CFP67-157 (from UniProt P16671 67-157)”, the % inhibition in assay [3] is 89%.

Take “GST/LIMPII fusion protein LFP75-155 (from UniProt Q14108 75-155)”: in assay [3], the % inhibition came out at 89%.

As to “GST/LIMPII fusion protein LFP156-243 (from UniProt Q14108 156-243)”, the % inhibition in assay [3] amounted to 32%.

What is called Kd is the constant that tells how readily two partners part at equilibrium. Read a high Kd as a looser complex. The substance “Recombinant baculovirus-expressed HIV-1 gp120 derived from the LAV isolate (from UniProt P03377 33-516)” displayed a Kd in assay [4] of 300 nM.
